Reference: article PMC12087662

Target: ATP6V1D (UniProt Q9Y5K8)
Test: in vitro binding, anti-Flag pull-down
Details: reference: wild-type ATP6V1B2-Flag; sites Y68

- binding against the reference: weaker
Substance: ATP6V1B2 (from UniProt P21281) ATP6V1B2(Y68F)-Flag
